# pKd: −log10 of the molar value.
# Target: Maporal virus (MPRLV) Gn/Gc virus-like particles (Maporal virus (MPRLV))
# Assay: BLI
substance,measurement,value
soluble PCDH1 EC1-EC2 (sEC1–2) (from UniProt Q08174-1 58-284) (domain or fragment),pKd,8.15
